Laboratory results as given in publication PMC12753870, “A novel fully human anti-ROR1 antibody PBA-0405 optimized for ADCC, induces potent anti-tumor activity against both solid and hematological malignancies” (Frontiers in Immunology, 2025).

Assays:
[1] = biological target: recombinant FcγRIIIA (CD16), allotype 158F (UniProt P08637); experiment: SPR; Biacore 8K; biotinylated recombinant FcγR proteins immobilised on CAP chips; antibodies as analytes in PBS-P+ buffer, 30 μL/min; 1:1 Langmuir model
recombinant FcγRIIIA (CD16), allotype 158F, sequence (P08637 17-208): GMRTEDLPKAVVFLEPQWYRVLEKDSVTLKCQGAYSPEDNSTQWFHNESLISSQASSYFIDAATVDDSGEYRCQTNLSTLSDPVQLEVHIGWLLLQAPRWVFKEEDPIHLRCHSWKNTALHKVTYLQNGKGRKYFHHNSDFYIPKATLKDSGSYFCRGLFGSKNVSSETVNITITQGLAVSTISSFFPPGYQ

[2] = biological target: recombinant FcγRIIA 167H (UniProt P12318); experiment: SPR; Biacore 8K; biotinylated FcγR immobilised on CAP chip, antibody as analyte in PBS-P+, 30 µL/min; steady state affinity; doses of 22.0405.aF 240-4000 nM for CD32a, 3-200 nM for CD16b; the legend of Supplementary Figure 2 says 'BLI or SPR'
recombinant FcγRIIA 167H, sequence (P12318 34-217): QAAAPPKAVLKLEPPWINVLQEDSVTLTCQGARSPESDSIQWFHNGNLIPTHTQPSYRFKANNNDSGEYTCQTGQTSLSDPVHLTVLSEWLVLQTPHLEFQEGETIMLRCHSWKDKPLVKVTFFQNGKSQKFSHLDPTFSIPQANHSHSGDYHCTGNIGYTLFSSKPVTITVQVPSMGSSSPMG

[3] = biological target: recombinant FcγRIIIB (UniProt O75015); experiment: as above
recombinant FcγRIIIB, sequence (O75015 17-200): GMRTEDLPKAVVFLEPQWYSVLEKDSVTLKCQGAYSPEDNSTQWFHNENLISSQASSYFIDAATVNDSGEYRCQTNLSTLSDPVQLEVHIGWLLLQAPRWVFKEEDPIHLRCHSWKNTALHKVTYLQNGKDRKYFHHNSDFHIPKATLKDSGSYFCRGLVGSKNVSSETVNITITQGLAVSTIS

[4] = biological target: recombinant FcγRI (UniProt P12314); experiment: SPR; Biacore 8K; biotinylated FcγR immobilised on CAP chip, antibody as analyte in PBS-P+, 30 µL/min; 1:1 Langmuir fit, KD = koff/kon; doses of 22.0405.aF 8-500 nM for CD64, 31-2000 nM for CD32b; the legend of Supplementary Figure 2 says 'BLI or SPR'
recombinant FcγRI, sequence (P12314 16-292): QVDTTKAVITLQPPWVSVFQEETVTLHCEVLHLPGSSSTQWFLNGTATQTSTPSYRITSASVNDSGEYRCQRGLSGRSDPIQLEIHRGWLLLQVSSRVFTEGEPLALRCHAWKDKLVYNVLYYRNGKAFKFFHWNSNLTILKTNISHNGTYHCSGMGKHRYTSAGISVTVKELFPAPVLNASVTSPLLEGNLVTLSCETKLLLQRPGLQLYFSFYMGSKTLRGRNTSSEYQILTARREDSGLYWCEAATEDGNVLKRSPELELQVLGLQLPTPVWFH

[5] = biological target: recombinant FcγRII B/C (UniProt P31994); experiment: as above
recombinant FcγRII B/C, sequence (P31994 43-217): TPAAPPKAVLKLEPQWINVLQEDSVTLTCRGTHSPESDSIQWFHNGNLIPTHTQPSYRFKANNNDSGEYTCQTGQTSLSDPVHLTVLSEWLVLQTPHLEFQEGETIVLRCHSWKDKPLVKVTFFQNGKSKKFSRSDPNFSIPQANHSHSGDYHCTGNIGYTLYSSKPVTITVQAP

[6] = biological target: human ROR1 on transfected CHO-K1 cells (CHO-ROR1) (human) (UniProt Q01973)
[7] = biological target: ROR1 endogenously expressed on JeKo-1 cells (human (endogenous in JeKo-1)) (UniProt Q01973)
[8] = biological target: ROR1 endogenously expressed on JeKo-1 cells (human (endogenous in JeKo-1)) (UniProt Q01973); remark: listed apart in the source
[9] = biological target: recombinant FcγRIIIA (CD16), allotype 158V (UniProt P08637); experiment: SPR; Biacore 8K; biotinylated recombinant FcγR proteins immobilised on CAP chips; antibodies as analytes in PBS-P+ buffer, 30 μL/min; 1:1 Langmuir model
recombinant FcγRIIIA (CD16), allotype 158V, sequence (P08637 17-208 F176V): as the sequence (P08637 17-208) above, with F160V counted along it

[10] = biological target: T1, recombinant Kringle (KRD) domain of human ROR1 (Homo sapiens, UniProt Q01973); experiment: BLI; Octet RED384; antibodies immobilised on AR2G sensors; dipped in 500 nM recombinant Ig-like, Frizzled or Kringle domain for 150 s, dissociation 200 s; conditions: both partners purified
T1 construct: ROR1, human, Kringle (KRD) domain; source: bought: Acro Biosystems

[11] = biological target: T2, recombinant Ig-like (IG) domain of human ROR1 (aa 39–151) (Homo sapiens, UniProt Q01973); experiment: as above; conditions: both partners purified
T2 construct: ROR1, human, Ig-like domain, aa 39–151; source: bought: Acro Biosystems

[12] = biological target: T3, human ROR2 on transfected CHO-K1 cells (CHO-ROR2) (Homo sapiens, UniProt Q01974); experiment: flow cytometry on cells; antibody titrated on CHO-K1 cells transfected with ROR1, ROR2 or empty vector, or on cells expressing ROR1 endogenously (JeKo-1); 30 min on ice; detected with APC goat anti-human IgG Fcγ; conditions: one partner purified
T3 construct: receptor tyrosine kinase-like orphan receptor 2 (ROR2), human; also called hROR-2; source: CHO-K1 cells, transfected, on cells

[13] = biological target: T4, human ROR1 on transfected CHO-K1 cells (CHO-ROR1) (Homo sapiens, UniProt Q01973); experiment: as above; conditions: one partner purified
T4 construct: receptor tyrosine kinase-like orphan receptor 1 (ROR1), human; also called hROR1; CHO cells overexpressing ROR1; source: CHO-K1 cells, stably transfected, on cells

[14] = biological target: T5, recombinant human ROR1/Fc (full-length extracellular domain of ROR1) (Homo sapiens, UniProt Q01973); experiment: BLI; Octet RED384; antibodies captured on FAB2G (anti-hIgG CH1) biosensors at 5 μg/mL; ROR/Fc as analyte 200–3.13 nM in 10× Kinetics Buffer; 200 s association, 500 s dissociation; 1:2 (bivalent analyte) model; apparent KD = koff1/kon1; conditions: both partners purified
T5 construct: receptor tyrosine kinase-like orphan receptor 1 (ROR1), human, full-length extracellular domain; Fitted as a bivalent analyte (1:2 model); also called hROR1; recombinant extracellular part of ROR1; source: bought: R&D Systems

[15] = biological target: T6, recombinant mouse ROR1/Fc (Mus musculus, UniProt Q9Z139); experiment: as above; conditions: both partners purified
T6 construct: ROR1, mouse; also called mROR1; source: bought: R&D Systems
T6 sequence (Q9Z139 30-406): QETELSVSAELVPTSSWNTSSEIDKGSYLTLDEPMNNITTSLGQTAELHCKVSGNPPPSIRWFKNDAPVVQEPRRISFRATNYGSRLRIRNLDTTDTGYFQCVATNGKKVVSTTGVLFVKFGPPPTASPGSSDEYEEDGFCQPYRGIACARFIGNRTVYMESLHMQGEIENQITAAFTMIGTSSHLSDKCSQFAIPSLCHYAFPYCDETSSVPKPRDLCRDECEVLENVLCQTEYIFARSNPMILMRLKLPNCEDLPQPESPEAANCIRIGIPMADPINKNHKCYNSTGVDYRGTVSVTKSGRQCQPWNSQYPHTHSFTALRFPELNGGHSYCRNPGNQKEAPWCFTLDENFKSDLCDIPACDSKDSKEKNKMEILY

zilovertamab-like antibody (anti-ROR1 mAb mimicking zilovertamab, humanized native IgG1)
Kd [1]: 3400 nM

zilovertamab-like antibody
Kd [2]: 2200 nM | Kd [3]: > 4000 nM | Kd [4]: 0.054 nM | Kd [5]: > 4000 nM

B1: 22.0405.aF (afucosylated form of 22.0405, fully human anti-ROR1 IgG1) (antibody, V domains shown)
VH: EVQLLESGGGLVQPGGSLRLSCAASGFTFHKYGMAWVRQAPGKGLEWVSSIDDRGRYTYYADSVKGRFTISRDNSKNTLYLQMNSLRAEDTAVYYCARGSYIIWSALDYWGQGTLVTVSS
VL: DIQMTQSPSSLSASVGDRVTITCRPNQNIATYINWYQQKPGKAPKLLIYHDNKRPSGVPSRFSGSGSGTDFTLTISSLQPEDFATYYCQQYEKLPWTFGQGTKVEIK
NK cell-mediated ADCC towards Raji cells overexpressing human ROR1 (Raji-ROR1); EC50; no statistically significant ADCC towards wild-type Raji cells [6]: 0.002 nM | tumor cell killing with total PBMCs as effector cells; EC50 [7]: 0.02 nM | ADCC by healthy donor NK cells against primary B-CLL cells (65%–99% ROR1-positive); EC50 [8]: 0.018 nM | Kd [1]: 57 nM

B2: 22.0405 (native, fucose-containing fully human anti-ROR1 IgG1 mAb) (antibody, V domains shown)
VH: EVQLLESGGGLVQPGGSLRLSCAASGFTFHKYGMAWVRQAPGKGLEWVSSIDDRGRYTYYADSVKGRFTISRDNSKNTLYLQMNSLRAEDTAVYYCARGSYIIWSALDYWGQGTLVTVSS
VL: DIQMTQSPSSLSASVGDRVTITCRPNQNIATYINWYQQKPGKAPKLLIYHDNKRPSGVPSRFSGSGSGTDFTLTISSLQPEDFATYYCQQYEKLPWTFGQGTKVEIK
notes: human IgG1 heavy chain constant region; IgG1; source: CHOK1 cells (BioIntron, China)
Kd [1]: 690 nM | Kd [9]: 217 nM | binding result [10]: no binding (tested: 500 nM) | binding result [11]: no binding (tested: 500 nM) | binding result [12]: no binding | EC50 [13]: 0.56 nM | Kd [14]: 60 nM | Kd [15]: 240 nM
